Results as given in patent US20220041717A1 (AFFIMED, published 2022).

Columns and labels:
[1] = target: CD16A (FcgammaRIIIA) on primary human NK-cells (human) (UniProt P08637); assay: cell-based or functional assay
[2] = target: CD16A (FcgammaRIIIA) on primary human NK-cells (human) (UniProt P08637); assay: flow cytometry, titration on primary human NK-cells at 37 C, buffer; detection with anti-His mAb
[3] = target: CD16A (FcgammaRIIIA) on primary human NK-cells (human) (UniProt P08637); assay: flow cytometry titration on primary human NK-cells, 37 C; detection with anti-His mAb, FITC goat anti-mouse IgG
CS1 on myeloma cells [4] = target: T1, CS1 on myeloma cells (UniProt Q9NQ25 23-335, limits assumed); assay: flow cytometry, titration on MM.1S cells; detection with CD16A-mFc.67/anti-human-FITC
T1 construct: whole, on cells
Method: (§1) Antibody binding was quantified by detection with CD16A-mFc.67/anti-human-FITC and flow cytometry. control antibodies anti-BCMA (ANC3B1), anti-CD38 (HB7) and anti-CS1 (235614) were added at saturating concentrations and detected by anti-mouse-Fc-FITC (ctrl.)

CS1 on myeloma cells [5] = target: T1, CS1 on myeloma cells; assay: flow cytometry, titration on NCI-H929 cells; detection with CD16A-mFc.67/anti-human-FITC
Method: as §1

CS1 on myeloma cells [6] = target: T1, CS1 on myeloma cells; assay: cell-based or functional assay
CS1 on myeloma cells [7] = target: T1, CS1 on myeloma cells; assay: cell-based or functional assay; remark: listed apart in the source
[8] = target: T2, B-cell maturation antigen (BCMA) on myeloma cell lines (human, UniProt Q02223 1-184); assay: flow cytometry, titration on RPMI-8226 cells; detection with CD16A-mFc.67/anti-human-FITC
T2 construct: whole, on cells; also called CD269; TNFRSF17
T2 sequence (looked up): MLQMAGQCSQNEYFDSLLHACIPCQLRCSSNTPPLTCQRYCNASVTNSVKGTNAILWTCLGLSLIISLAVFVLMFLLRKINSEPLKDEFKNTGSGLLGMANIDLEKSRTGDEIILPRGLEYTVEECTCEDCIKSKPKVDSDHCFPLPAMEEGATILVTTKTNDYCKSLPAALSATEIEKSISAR
Method: as §1

[9] = target: T2, B-cell maturation antigen (BCMA) on …; assay: flow cytometry titration on MM.1S cells; detection with CD16A-mFc.67/anti-human-FITC
Method: as §1

[10] = target: T3, CD16A (FcgammaRIIIA) on primary human NK-cells (human, UniProt P08637 17-208); assay: flow cytometry titration on primary human NK-cells, 37 C; detection with BCMA(1-54)-GCN4-His, anti-His mAb, FITC goat anti-mouse IgG
T3 construct: The assays used primary human NK-cells
T3 sequence (P08637 17-208): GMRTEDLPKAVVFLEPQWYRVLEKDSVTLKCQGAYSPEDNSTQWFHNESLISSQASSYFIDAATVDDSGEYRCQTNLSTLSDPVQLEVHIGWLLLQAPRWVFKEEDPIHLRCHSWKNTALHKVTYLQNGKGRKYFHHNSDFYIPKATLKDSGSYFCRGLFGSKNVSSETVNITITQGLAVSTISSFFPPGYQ
Method: (§2) Method: Serial dilutions of anti-CD16A scFv are added to primary human NK-cells at 37° C. for 45 min followed by detection of antibody binding on ice.

[11] = target: T3, CD16A (FcgammaRIIIA) on primary human …; assay: flow cytometry, titration on primary human NK-cells at 37 C, buffer; apparent affinity; detection via BCMA(1-54)-GCN4-His/anti-His
[12] = target: T3, CD16A (FcgammaRIIIA) on primary human …; assay: flow cytometry, titration on primary human NK-cells at 37 C in presence of 10 mg/mL polyclonal human IgG (competitor)
[13] = target: T2, B-cell maturation antigen (BCMA) on …; assay: flow cytometry, titration on MM.1S cells; detection with CD16A-mFc.67/anti-human-FITC
Method: as §1

[14] = target: T3, CD16A (FcgammaRIIIA) on primary human …; assay: cell-based or functional assay
[15] = target: T3, CD16A (FcgammaRIIIA) on primary human …; assay: flow cytometry titration on primary human NK-cells, 37 C, in presence of 10 mg/mL polyclonal human IgG; detection with BCMA(1-54)-GCN4-His, anti-His mAb, FITC goat anti-mouse IgG
[16] = target: T2, B-cell maturation antigen (BCMA) on …; assay: flow cytometry, titration on NCI-H929 cells; detection with CD16A-mFc.67/anti-human-FITC
Method: as §1

[17] = target: T2, B-cell maturation antigen (BCMA) on …; assay: cell-based or functional assay
[18] = target: T3, CD16A (FcgammaRIIIA) on primary human …; assay: flow cytometry on primary human NK-cells, with against without 10 mg/mL polyclonal human IgG
[19] = target: T3, CD16A (FcgammaRIIIA) on primary human …; assay: flow cytometry, titration on primary human NK-cells at 37 C, buffer; apparent affinity
Method: as §2

[20] = target: T2, B-cell maturation antigen (BCMA) on …; assay: cell-based or functional assay; remark: listed apart in the source
[21] = target: T2, B-cell maturation antigen (BCMA) on …; assay: flow cytometry titration on NCI-H929 cells; detection with CD16A-mFc.67/anti-human-FITC
Method: as §1

[22] = target: T3, CD16A (FcgammaRIIIA) on primary human …; assay: flow cytometry titration on primary human NK-cells, 37 C, buffer without IgG; detection with BCMA(1-54)-GCN4-His, anti-His mAb, FITC goat anti-mouse IgG

Sequence of CD16A (FcgammaRIIIA) on primary human NK-cells (human) (P08637 17-208): as above

B1: Anti-CD16A diabody (protein, not shown: small tags and cut ends)
VL: SYVLTQPSSVSVAPGQTATISCGGHNIGSKNVHWYQQRPGQSPVLVIYQDNKRPSGIPERFSGSNSGNTATLTISGTQAMDEADYYCQVWDNYSVLFGGGTKLTVL
VH: QVQLVQSGAEVKKPGESLKVSCKASGYTFTSYYMHWVRQAPGQGLEWMGAIEPMYGSTSYAQKFQGRVTMTRDTSTSTVYMELSSLRSEDTAVYYCARGSAYYYDFADYWGQGTLVTVSS
modifications: diabody linker not stated
B1 showed an EC50 of antibody-induced NK-cell-NK-cell lysis (4 h calcein release) [1] of 0.659 nM.

B2: Anti-CD16A scFv (scFv, V domains shown, part only)
VL: B1 VL
VH: B1 VH
B2 showed a Kd [2] of 12.2 nM and an EC50 (read off the curve) [3] of 10 nM.

B3: elotuzumab (antibody, V domains shown)
VH: EVQLVESGGGLVQPGGSLRLSCAASGFDFSRYWMSWVRQAPGKGLEWIGEINPDSSTINYAPSLKDKFIISRDNAKNSLYLQMNSLRAEDTAVYYCARPDGNYWYFDVWGQGTLVTVSS
VL: DIQMTQSPSSLSASVGDRVTITCKASQDVGIAVAWYQQKPGKVPKLLIYWASTRHTGVPDRFSGSGSGTDFTLTISSLQPEDVATYYCQQYSSYPYTFGQGTKVEIK
With B3 the Kd (CS1 on myeloma cells [4]) was 35.7 nM, the Kd (CS1 on myeloma cells [5]) was 36 nM and the “EC50 of NK-cell-mediated lysis of primary myeloma cells (multiple myeloma; 4 h 51Cr release)” value (CS1 on myeloma cells [6]) was 0.145 nM. The “EC50 of NK-cell-mediated lysis of primary myeloma cells (plasma cell leukemia; 4 h 51Cr release)” value (CS1 on myeloma cells [6]) was 0.0782 nM, the “EC50 of NK-cell-mediated lysis of MM.1S cells (4 h calcein release)” value (CS1 on myeloma cells [7]) was 0.153 nM and the “EC50 of NK-cell-mediated lysis of NCI-H929 cells (4 h calcein release)” value (CS1 on myeloma cells [7]) was 0.394 nM.

B4: BCMA/CD16A-directed tandem diabody in variant 4 (bispecific antibody)
chain: QVQLVQSGAEVKTPGEPLKISCKGSGYSFTDSWIGWVRQMPGKGLEWMGIIYAGDSDARYSPSFQGQVTISADTSTSTVYLQWSSLKASDTAMYYCARNFGDHWGQGTLVTVSSGGSGGSGGSGGSSYVLTQPSSVSVAPGQTATISCGGHNIGSKNVHWYQQRPGQSPVLVIYQDNKRPSGIPERFSGSNSGNTATLTISGTQAMDEADYYCQVWDNYSVLFGGGTKLTVLGGSQVQLVQSGAEVKKPGESLKVSCKASGYTFTSYYMHWVRQAPGQGLEWMGAIEPMYGSTSYAQKFQGRVTMTRDTSTSTVYMELSSLRSEDTAVYYCARGSAYYYDFADYWGQGTLVTVSSGGSGGSGGSGGSSYELTQSPSVSVAPGQTARIFCGGDNIGSKNVHWYQQKPGQAPVLVIYRDSNRPSGIPERFSGANSENTATLTISRAQAGDEADYYCQVWDSRTYVFGTGTKLTVL
notes: also called tandem diabody variant 4; Tandem diabody (v4)
For B4, the Kd [8] was 26.7 nM, the “EC50 (read off the curve)” value [9] was roughly 10 nM and the “EC50 (read off the curve)” value [10] was roughly 1 nM. It also gave a Kd [11] of 1.2 nM, a Kd [12] of 3.6 nM and a Kd [13] of 11.5 nM. For the same binder, the “EC50 of NK-cell-mediated lysis of BCMA+ NCI-H929 cells (4 h calcein release), 10 mg/mL polyclonal human IgG” value [14] was 0.0761 nM, the “EC50 of NK-cell-mediated lysis of BCMA+ NCI-H929 cells (4 h calcein release), buffer” value [14] was 0.0162 nM and the “Fold-loss in potency (EC50 with 10 mg/mL IgG against buffer)” value [14] was 4.7 fold. The “EC50 (read off the curve)” value [15] was roughly 4 nM, the Kd [16] was 27.7 nM and the “EC50 of NK-cell-mediated lysis of primary myeloma cells from a pleural effusion (multiple myeloma; 4 h 51Cr release)” value [17] was 0.004 nM. For the same binder, the “EC50 of NK-cell-mediated lysis of primary myeloma cells from peripheral blood (plasma cell leukemia; 4 h 51Cr release)” value [17] was 0.0063 nM, the “fold-change (KD with 10 mg/mL IgG against KD in buffer)” value [18] was 3 fold and the Kd [19] was 1.2 nM. For the same binder, the “EC50 of NK-cell-mediated lysis of MM.1S cells (4 h calcein release)” value [20] was 0.0037 nM, the “EC50 of NK-cell-mediated lysis of NCI-H929 cells (4 h calcein release)” value [20] was 0.0091 nM and the “EC50 of NK-cell-mediated lysis of RPMI-8226 cells (4 h calcein release)” value [20] was 0.0623 nM. For the same binder, the “EC50 (read off the curve)” value [21] was roughly 20 nM and the “EC50 (read off the curve)” value [22] was roughly 1 nM.
